Measured values reported in the supplement of paper PMC10567573.

B1: HESX1 (parent)
chain: SKYENYFSASERLSLKRELSWYRG

Variants of: B1
Assay: protein stability index of a GFP-peptide fusion (GPS, HEK-293T) (PSI 1-6); higher = more stable
Settings: c terminus: a fixed tail appended
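Note: lentivirally expressed fusions sorted by FACS into six bins by GFP to DsRed ratio, PSI derived from sequencing read proportions per bin multiplied by bin number.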

Going from SKYENYFSASERLSVKRELSWYRG to SKYENFFSASERLSLKRELSWYRG, the protein stability index rises from 2.06 to 2.88.

First: SKYENYFSASERLSFKRELSWYRG
Second: SKYENYMSASERLSLKRELSWYRG
The protein stability index of the first is lower: 1.61 for the first, 2.12 for the second.

Compared with SKYENYFSASERLSLIRELSWYRG, SKYENYYSASERLSLKRELSWYRG is higher in protein stability index: 1.8 for the first, 2.63 for the second.

Compared with SKYEKYFSASERLSLKRELSWYRG, SKYMNYFSASERLSLKRELSWYRG is higher in protein stability index: 1.42 for the first, 2.02 for the second.

Compared with SKYENYKSASERLSLKRELSWYRG, SKGENYFSASERLSLKRELSWYRG is higher in protein stability index: 1.77 for the first, 2.75 for the second.

Going from SKYENYFSASERLSLKRELSWYRI to SKIENYFSASERLSLKRELSWYRG, the protein stability index rises from 1.81 to 2.26.

Going from SKYENYFSASERYSLKRELSWYRG to SKYENYFSVSERLSLKRELSWYRG, the protein stability index falls from 1.93 to 1.41.

Compared with SKYENKFSASERLSLKRELSWYRG, SKYENYFSASEILSLKRELSWYRG is higher in protein stability index: 2.05 for the first, 2.77 for the second.

Going from LKYENYFSASERLSLKRELSWYRG to SKYENYWSASERLSLKRELSWYRG, the protein stability index falls from 2.06 to 1.3.

Compared with SKYENYFSASERLSLKREVSWYRG, SKYEHYFSASERLSLKRELSWYRG is higher in protein stability index: 1.79 for the first, 1.9 for the second.

Going from SKYENYFSASERLSLKRELSWKRG to SKYENYFAASERLSLKRELSWYRG, the protein stability index falls from 2.46 to 1.94.

First: SKYENYFNASERLSLKRELSWYRG
Second: SKYENYFSASERLSLKRELSWHRG
The protein stability index of the first is lower: 1.68 for the first, 2.56 for the second.

Compared with SYYENYFSASERLSLKRELSWYRG, SKYENYFSASERLSLKREGSWYRG is higher in protein stability index: 1.81 for the first, 1.87 for the second.

First: SKYENYFSASERLSPKRELSWYRG
Second: SKYENYFSASERLSLKRELSGYRG
The protein stability index of the first is higher: 2.57 for the first, 1.48 for the second.

Going from SKYENYFSASERLSLKRESSWYRG to SKYENHFSASERLSLKRELSWYRG, the protein stability index falls from 3.25 to 2.25.

Going from SKYENYFSAKERLSLKRELSWYRG to SKYENYFSAQERLSLKRELSWYRG, the protein stability index falls from 2.72 to 2.28.

First: SKYENYFSASERLSLPRELSWYRG
Second: SKYENYFSASERLSLKWELSWYRG
The protein stability index of the first is higher: 3.04 for the first, 1.21 for the second.

Going from SKYENYFSASERLSLNRELSWYRG to SKYENYFSASERLSLKKELSWYRG, the protein stability index rises from 2.17 to 2.27.

First: EKYENYFSASERLSLKRELSWYRG
Second: SKYENYFSASERLSLKRPLSWYRG
The protein stability index of the first is lower: 1.76 for the first, 2.07 for the second.

Going from SKYENYFSASECLSLKRELSWYRG to SKYENYFSASERLSLKYELSWYRG, the protein stability index rises from 2.4 to 2.66.

First: SKYENGFSASERLSLKRELSWYRG
Second: SKYHNYFSASERLSLKRELSWYRG
The protein stability index of the first is higher: 2.56 for the first, 1.17 for the second.

First: SKYENYFSASERLSLKREHSWYRG
Second: SKYEYYFSASERLSLKRELSWYRG
The protein stability index of the first is higher: 2.66 for the first, 2.24 for the second.

Going from SKYENYLSASERLSLKRELSWYRG to SKYENYFSASKRLSLKRELSWYRG, the protein stability index falls from 2.64 to 2.04.

Going from SKYENYFSASERLSLKRELWWYRG to SKYENYFSASESLSLKRELSWYRG, the protein stability index falls from 2.91 to 2.

Compared with SKYENYFSASERLSLKREPSWYRG, SLYENYFSASERLSLKRELSWYRG is lower in protein stability index: 2 for the first, 1.25 for the second.

Compared with SKYENYDSASERLSLKRELSWYRG, SKYENQFSASERLSLKRELSWYRG is lower in protein stability index: 2.39 for the first, 1.96 for the second.

Compared with SSYENYFSASERLSLKRELSWYRG, SKYENYFSASERLSLKRECSWYRG is higher in protein stability index: 1.82 for the first, 2.01 for the second.

Going from SKYENYFEASERLSLKRELSWYRG to SKYENYFSASERLSLKRQLSWYRG, the protein stability index falls from 1.67 to 1.52.

Going from SKYENYFSASERGSLKRELSWYRG to SKYENYFSASERMSLKRELSWYRG, the protein stability index falls from 1.93 to 1.63.

Compared with SKYENYFSASEDLSLKRELSWYRG, SKYENYFSASERLSLKRELSWYAG is lower in protein stability index: 2.32 for the first, 1.85 for the second.

Compared with SKYENYFSASERLSLKRELSWYRP, SKYENYFSASERLSLKRELSDYRG is higher in protein stability index: 2.46 for the first, 3.19 for the second.

Going from SKYENYFSASERLSLKRHLSWYRG to AKYENYFSASERLSLKRELSWYRG, the protein stability index falls from 1.77 to 1.71.

Compared with SKFENYFSASERLSLKRELSWYRG, SKYENYFSASERLSLKRELSWYCG is higher in protein stability index: 1.48 for the first, 1.53 for the second.

Going from SKYENYFSASERLSLKAELSWYRG to SKYENYFSAGERLSLKRELSWYRG, the protein stability index falls from 2.04 to 1.56.

Compared with SKYENYFSASERLSLKRELSQYRG, SKYENYFSASERLSLKRELSWARG is lower in protein stability index: 2.63 for the first, 1.82 for the second.

Going from SKYENYFIASERLSLKRELSWYRG to YKYENYFSASERLSLKRELSWYRG, the protein stability index rises from 1.94 to 2.77.

Going from SKYENYFSASERLSLKRELSWYHG to SKYENYFMASERLSLKRELSWYRG, the protein stability index falls from 2.3 to 1.61.

First: SKYENVFSASERLSLKRELSWYRG
Second: SKYENYFSASERLSLKRNLSWYRG
The protein stability index of the first is lower: 1.27 for the first, 2.06 for the second.

First: SKYENYFSADERLSLKRELSWYRG
Second: SKYENYFSAEERLSLKRELSWYRG
The protein stability index of the first is lower: 2.19 for the first, 3.04 for the second.

Compared with SKYENYFSASERLSLKREASWYRG, SKYENYFSASERLSLKRELSWYRL is lower in protein stability index: 2.62 for the first, 1.35 for the second.

Going from SKYENYFSASERLSLKEELSWYRG to SKYENYFSAWERLSLKRELSWYRG, the protein stability index rises from 1.91 to 2.31.

Compared with SKYENYFSASERLQLKRELSWYRG, SKYENYFSASETLSLKRELSWYRG is higher in protein stability index: 2.36 for the first, 2.88 for the second.

First: SKYENYFSASERLSLFRELSWYRG
Second: SKYENYFSASERLSLKRELSWSRG
The protein stability index of the first is lower: 1.37 for the first, 2.22 for the second.

First: SKYENYFSASERLSLKRELSHYRG
Second: SKYENYFSASERLSIKRELSWYRG
The protein stability index of the first is lower: 1.73 for the first, 1.86 for the second.

First: SKYENYVSASERLSLKRELSWYRG
Second: SKYENYFSASERFSLKRELSWYRG
The protein stability index of the first is higher: 3.05 for the first, 1.65 for the second.

Compared with SKYENYFSASERSSLKRELSWYRG, SKYENYFSASERLSLKRELSWWRG is higher in protein stability index: 2.07 for the first, 2.4 for the second.

Going from SKYENYFSASERNSLKRELSWYRG to SKNENYFSASERLSLKRELSWYRG, the protein stability index falls from 2.31 to 1.72.
